Measured values: patent US20250215104A1

Target: cell surface human uPAR (huPAR) (human) (UniProt Q03405)
Experiment: cell-based or functional assay

Chain of cell surface human uPAR (huPAR) (human) (Q03405 23-305): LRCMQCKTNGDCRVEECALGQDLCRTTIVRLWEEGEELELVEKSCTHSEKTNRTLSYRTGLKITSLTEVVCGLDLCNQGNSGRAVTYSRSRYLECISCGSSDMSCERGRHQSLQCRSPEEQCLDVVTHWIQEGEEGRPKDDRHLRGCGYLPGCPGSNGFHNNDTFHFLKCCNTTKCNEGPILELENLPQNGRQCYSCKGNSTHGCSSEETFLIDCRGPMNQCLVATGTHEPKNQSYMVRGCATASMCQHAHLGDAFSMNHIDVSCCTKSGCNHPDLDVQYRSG

- cellular endocytosis: mean cellular fluorescent signal (FITC-conjugated antibody, 10 µg/mL, 1 hr, undifferentiated human podocytes): 100 RFU
Substance: hIgG control antibody
